These results are taken from patent publication US20230414780A1 (VECT HORUS, published 2023).

Assay [1] addresses T1, rhesus monkey TfR ectodomain fused to a mouse IgG1 Fc fragment (rhesus monkey, UniProt I0FKY7 89-760).
T1 construct: extracellular domain; not shown: mouse IgG1 Fc fragment
The experiment in a line: SPR, at equilibrium. The method, then:
(§1) Binding properties of some VHHs were also evaluated using Surface Plasmon Resonance (SPR) experiments. The human, mouse and rhesus monkey TfR (having respectively GeneBank number NM_003234.2, NM_011638, NC_041755.1) ectodomains were fused to the N-terminal end of a mouse IgG1 Fc fragment and the recombinant proteins were produced and purified in-house. Interaction of VHHs with the receptors was tested using a Biacore T200 (GE Healthcare). Receptors were immobilized on an HC 1500M or a CM5 sensor chip (Xantec) either directly or on an anti-mouse IgG previously immobilized. VHHs were injected over flowcell by using the single-cycle kinetic or the multiple-cycle kinetic methods.
On the technique in general: SPR reads the build-up and loss of mass on a sensor chip optically.

Assay [2] has as its target T2, human TfR ectodomain fused to a mouse IgG1 Fc fragment (human, UniProt P02786 89-760).
T2 construct: extracellular domain; ectodomain fused to the N-terminal end of the Fc, made in-house; not shown: mouse IgG1 Fc fragment
The experiment in a line: SPR, at equilibrium. The method, then:
as §1

For assay [3], the target named is T3, human transferrin receptor (hTfR) fused to EGFP, on CHO cells (human, UniProt P02786 1-760).
T3 construct: whole, on cells; also called human TfR; CHO-hTfR-EGFP; not shown: EGFP from pEGFP-C1 vector, fused to the N-terminal (intracellular) end of hTfR
T3 sequence (P02786 whole entry, the tested form may be a part): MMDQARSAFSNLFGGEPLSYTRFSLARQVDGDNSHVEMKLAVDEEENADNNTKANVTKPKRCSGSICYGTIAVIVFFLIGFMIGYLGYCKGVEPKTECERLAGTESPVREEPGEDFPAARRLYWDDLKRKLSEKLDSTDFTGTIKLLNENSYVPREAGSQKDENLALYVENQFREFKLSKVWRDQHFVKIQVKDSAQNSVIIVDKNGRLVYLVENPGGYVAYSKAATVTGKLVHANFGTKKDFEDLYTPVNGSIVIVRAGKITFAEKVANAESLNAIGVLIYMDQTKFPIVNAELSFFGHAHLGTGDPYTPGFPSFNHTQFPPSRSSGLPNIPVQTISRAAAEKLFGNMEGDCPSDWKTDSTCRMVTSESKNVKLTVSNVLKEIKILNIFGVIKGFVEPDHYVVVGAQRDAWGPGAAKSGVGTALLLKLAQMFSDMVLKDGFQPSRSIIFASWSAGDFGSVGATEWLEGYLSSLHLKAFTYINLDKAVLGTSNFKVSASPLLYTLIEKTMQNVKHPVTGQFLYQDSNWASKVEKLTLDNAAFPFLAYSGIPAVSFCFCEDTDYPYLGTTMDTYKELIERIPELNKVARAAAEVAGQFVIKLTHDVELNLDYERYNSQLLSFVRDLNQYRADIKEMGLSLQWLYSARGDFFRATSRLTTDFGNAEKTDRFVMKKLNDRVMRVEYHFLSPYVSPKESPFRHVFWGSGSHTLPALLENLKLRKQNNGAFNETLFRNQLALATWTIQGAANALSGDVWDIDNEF
The experiment in a line: apparent Kd, flow cytometry, CHO cells. The essentials:
(§2)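 CHO cells expressing TfR-EGFP fusions, blocked in PBS/BSA 2%, then incubated with increasing VHH concentrations for 1 hr at 4° C. Bound VHH detected via anti-6His antibody and Alexa647 secondary, cells PFA-fixed, read by flow cytometry. Apparent Kd from nonlinear fit.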
In general terms: A flow cytometer gives signals particle by particle.

In assay [4] the target is T4, mouse transferrin receptor (mTfR) fused to EGFP, on CHO cells (mouse, UniProt Q62351 1-763).
T4 construct: whole, on cells; also called mouse TfR; CHO-mTfR-EGFP; not shown: EGFP
T4 sequence (Q62351 whole entry, the tested form may be a part): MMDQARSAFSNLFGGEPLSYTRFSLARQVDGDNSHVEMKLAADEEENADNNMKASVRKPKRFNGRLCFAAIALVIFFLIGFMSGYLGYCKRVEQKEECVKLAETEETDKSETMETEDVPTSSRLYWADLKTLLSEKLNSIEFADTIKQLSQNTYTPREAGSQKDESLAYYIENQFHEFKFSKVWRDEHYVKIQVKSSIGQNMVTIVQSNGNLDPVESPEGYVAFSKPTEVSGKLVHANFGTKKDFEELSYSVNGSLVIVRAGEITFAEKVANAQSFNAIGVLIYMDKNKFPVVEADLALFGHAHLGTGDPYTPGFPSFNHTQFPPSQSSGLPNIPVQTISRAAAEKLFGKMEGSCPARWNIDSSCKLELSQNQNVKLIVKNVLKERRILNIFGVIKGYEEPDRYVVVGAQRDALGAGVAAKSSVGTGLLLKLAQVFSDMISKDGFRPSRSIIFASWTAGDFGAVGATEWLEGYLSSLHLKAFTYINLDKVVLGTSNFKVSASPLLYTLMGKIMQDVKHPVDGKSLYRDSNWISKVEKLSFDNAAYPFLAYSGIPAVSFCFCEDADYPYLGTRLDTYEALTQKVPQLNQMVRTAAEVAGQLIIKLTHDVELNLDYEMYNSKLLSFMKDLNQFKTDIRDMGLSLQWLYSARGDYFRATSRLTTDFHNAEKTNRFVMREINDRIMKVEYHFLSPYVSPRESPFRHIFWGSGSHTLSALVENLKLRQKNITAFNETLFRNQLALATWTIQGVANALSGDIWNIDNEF
The experiment in a line: apparent Kd, flow cytometry, CHO cells. In short, it runs like this:
as §2

For assay [5], the target named is T5, rhesus monkey transferrin receptor (rhTfR) fused to EGFP, on CHO cells (rhesus monkey).
T5 construct: whole, on cells; also called rhesus monkey TfR
The experiment in a line: apparent Kd, flow cytometry, CHO cells. The essentials: as §2

In assay [6] the target is T1, rhesus monkey TfR ectodomain fused to a …. The experiment in a line: SPR, kinetic. The method, then: as §1
The target in assay [7] is T2, human TfR ectodomain fused to a mouse …. The experiment in a line: SPR, kinetic. How it is done:
as §1

T2 sequence (P02786 89-760): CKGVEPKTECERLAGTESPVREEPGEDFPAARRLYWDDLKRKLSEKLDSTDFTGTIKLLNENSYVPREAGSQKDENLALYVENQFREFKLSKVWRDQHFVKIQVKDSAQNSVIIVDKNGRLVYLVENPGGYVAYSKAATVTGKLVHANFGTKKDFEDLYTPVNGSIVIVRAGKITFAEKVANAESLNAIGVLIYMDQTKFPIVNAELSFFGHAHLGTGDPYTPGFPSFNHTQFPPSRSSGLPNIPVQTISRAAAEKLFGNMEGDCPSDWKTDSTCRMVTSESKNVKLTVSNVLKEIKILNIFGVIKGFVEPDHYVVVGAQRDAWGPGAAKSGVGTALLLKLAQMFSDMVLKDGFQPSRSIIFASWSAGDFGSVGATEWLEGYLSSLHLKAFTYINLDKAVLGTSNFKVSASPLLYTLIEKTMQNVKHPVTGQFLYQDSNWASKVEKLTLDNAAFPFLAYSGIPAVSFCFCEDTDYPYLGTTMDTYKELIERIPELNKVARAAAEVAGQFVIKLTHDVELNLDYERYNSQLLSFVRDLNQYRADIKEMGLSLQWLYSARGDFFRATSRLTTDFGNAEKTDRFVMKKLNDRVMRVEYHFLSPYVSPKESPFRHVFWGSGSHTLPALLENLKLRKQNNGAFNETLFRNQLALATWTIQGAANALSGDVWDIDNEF

B1: B8^V31 (VHH)
VHH: EVQLVESGGGVVQPGGSLRLSCAASGEIKSINFMRWYRQAPGKQREWVAGFTRDGSTNYPDSAKGRFTISRDNAKNTVYLQIDSLKPEDTAVYYCYMLDTWGQGTQVTVSS
In the case of B1, the Kd in assay [1] came to 35.4 nM; in assay [2] it was 63.8 nM; in assay [3], 14 nM; in assay [4], 1690 nM; in assay [5] it was 20 nM; in assay [6] it was 32.1 nM. In assay [7], this molecule had a Kd of 60.8 nM. The values for the koff in assay [6] and in assay [7] were 0.0509 s⁻¹ and 0.0221 s⁻¹, respectively. Besides, the results for the kon in assay [6] and in assay [7] were 1.59e+06 M⁻¹ s⁻¹ and 364000 M⁻¹ s⁻¹, respectively.

B2: B8^V35 (VHH)
VHH: EVQLVESGGGVVQPGGSLRLSCAASGEIRSINFMRWYRQAPGKQREWVAGFTRDGSLNYPDSAKGRFTISRDNAKNTVYLQIDSLKPEDTAVYYCYMLDTWGKGTQVTVSS
On to B2, for which the Kd in assay [1] came out at 34.4 nM; in assay [2], 23.9 nM; in assay [3], 7.1 nM; in assay [4] it was 513 nM; in assay [5], 23 nM; in assay [6], 33.7 nM. The Kd in assay [7] stood at 20.6 nM. Also, the koff turned out to be 0.0303 s⁻¹ in assay [6] and 0.0143 s⁻¹ in assay [7]. The kon in assay [6] stood at 898000 M⁻¹ s⁻¹; in assay [7], 698000 M⁻¹ s⁻¹.

B3: B8^V33 (VHH)
VHH: EVQLVESGGGVVQPGGSLRLSCAASGEIFSINFMRWYRQAPGKQREWVAGFTRDGSTNYPDSAKGRFTISRDNAKNTVYLQIDSLKPEDTAVYYCYMLKTWGQGTQVTVSS
For the molecule B3, the Kd turned out to be 86 nM in assay [1]; 46.5 nM in assay [2]; 50 nM in assay [3]; 230 nM in assay [4]; 170 nM in assay [5]; 73.4 nM in assay [6]. The molecule further had a Kd in assay [7] of 46.2 nM. Moreover, the koff is 0.0509 s⁻¹ in assay [6] and 0.0328 s⁻¹ in assay [7]. Further, the kon in assay [6] came out at 693000 M⁻¹ s⁻¹; in assay [7], 710000 M⁻¹ s⁻¹.

B4: B8^V32 (VHH)
VHH: EVQLVESGGGVVQPGGSLRLSCAASGEIRSINFMRWYRQAPGKQREWVAGFTRDGSTNYPDSAKGRFTISRDNAKNTVYLQIDSLKPEDTAVYYCYMLDTWGQGTQVTVSS
For the molecule B4, the Kd in assay [1] stood at 35.1 nM; in assay [2], 36.5 nM; in assay [3], 7.1 nM; in assay [4], 1210 nM; in assay [5], 14 nM; in assay [6], 32.7 nM. Moreover, the Kd in assay [7] stood at 30.1 nM. The koff is 0.0418 s⁻¹ in assay [6] and 0.0126 s⁻¹ in assay [7]. The results for the kon in assay [6] and in assay [7] were 1.28e+06 M⁻¹ s⁻¹ and 420000 M⁻¹ s⁻¹, respectively.

B5: B8^V34 (VHH)
VHH: EVQLVESGGGVVQPGGSLRLSCAASGEIRSINFMRWYRQAPGKQREWVAGFTRDGSTNYPDIAKGRFTISRDNAKNTVYLQIDSLKPEDTAVYYCYMLDTWGQGTQVTVSS
On to B5, for which the Kd in assay [1] is 49.4 nM; in assay [2] it was 32.4 nM; in assay [3] it was 13 nM; in assay [4] it was 1070 nM; in assay [5], 68 nM; in assay [6], 51.5 nM. In assay [7], the Kd worked out at 33.3 nM. Moreover, the koff stood at 0.102 s⁻¹ in assay [6] and 0.0244 s⁻¹ in assay [7]. Further, the kon came to 1.97e+06 M⁻¹ s⁻¹ in assay [6] and 733000 M⁻¹ s⁻¹ in assay [7].

B6: B8^V37 (VHH)
VHH: EVQLVESGGGVVQPGGSLRLSCAASGEIFSINFMRWYRQAPGKQREWVAGFTRDGSTNYPDSAKGRFTISEDNAKNTVYLQIDSLKPEDTAVYYCYMLRTWGQGTQVTVSS
Turning to B6, the Kd is 175 nM in assay [1]; 75.5 nM in assay [2]; 97 nM in assay [3]; 582 nM in assay [4]; 334 nM in assay [5]; 148 nM in assay [6]. Further, in assay [7], the Kd is 70.5 nM. Also, the koff in assay [6] was 0.103 s⁻¹; in assay [7], 0.0493 s⁻¹. Further, the kon in assay [6] is 700000 M⁻¹ s⁻¹; in assay [7], 699000 M⁻¹ s⁻¹.

A word on the koff: it is the rate constant with which the complex falls apart. Broadly, the kon is a measure of how fast the partners come together.
